According to article PMC5586342, “Mouse glutamate carboxypeptidase II (GCPII) has a similar enzyme activity and inhibition profile but a different tissue distribution to human GCPII” (FEBS Open Bio, 2017):
Like-named read-outs stand apart in the source and are kept apart here. One block for each molecule: values may come before it.

Experiments:
[1] = biological target: T1, Avi-hGCPII (recombinant extracellular human GCPII) (Homo sapiens, UniProt Q04609); test: HPLC assay of pteroyl-di-L-glutamate cleavage; format: biochemical; details: for Ki: read-out: K i (Avi-hGCPII)
T1 construct: gene FOLH1
Excerpt: HPLC assay of pteroyl-di-L-glutamate cleavage on Avi-hGCPII (recombinant extracellular human GCPII)

[2] = biological target: T2, Avi-mGCPII (recombinant extracellular mouse GCPII) (Mus musculus, UniProt O35409); test: HPLC assay of pteroyl-di-L-glutamate cleavage; format: biochemical; details: for Ki: read-out: K i (Avi-mGCPII)
T2 construct: gene Folh1; extracellular domain (45-752), N-terminal biotinylated Avi-tag with TEV site, secreted from Drosophila S2 cells, streptavidin mutein purification
Excerpt: HPLC assay of pteroyl-di-L-glutamate cleavage on Avi-mGCPII (recombinant extracellular mouse GCPII)

[3] = test system: CC(=O)N[C@@H](CC(=O)O)C(=O)N[C@@H](CCC(=O)O)C(=O)O; test: radioenzymatic assay; format: biochemical, Homo sapiens; details: […] Bis-Tris propane, […] NaCl, pH […]
Excerpt: radioenzymatic assay on Avi-hGCPII (recombinant extracellular human GCPII)

HPLC assay = substrate: Nc1nc2ncc(CNc3ccc(C(=O)N[C@@H](CCC(=O)N[C@@H](CCC(=O)O)C(=O)O)C(=O)O)cc3)nc2c(=O)[nH]1; test: HPLC assay; format: biochemical, Mus musculus; details: […] Bis-Tris propane, […] NaCl, pH […]
Excerpt: HPLC assay on Avi-mGCPII (recombinant extracellular mouse GCPII)

radioenzymatic assay = substrate: CC(=O)N[C@@H](CC(=O)O)C(=O)N[C@@H](CCC(=O)O)C(=O)O; test: radioenzymatic assay; format: biochemical, Mus musculus; details: […] Bis-Tris propane, […] NaCl, pH […]
Excerpt: radioenzymatic assay on Avi-mGCPII (recombinant extracellular mouse GCPII)

[4] = substrate pteroyl-di-L-glutamate ([…] final), […] Bis-Tris propane, […] NaCl, pH […] °C

T1 sequence (Q04609 44-750 limits assumed): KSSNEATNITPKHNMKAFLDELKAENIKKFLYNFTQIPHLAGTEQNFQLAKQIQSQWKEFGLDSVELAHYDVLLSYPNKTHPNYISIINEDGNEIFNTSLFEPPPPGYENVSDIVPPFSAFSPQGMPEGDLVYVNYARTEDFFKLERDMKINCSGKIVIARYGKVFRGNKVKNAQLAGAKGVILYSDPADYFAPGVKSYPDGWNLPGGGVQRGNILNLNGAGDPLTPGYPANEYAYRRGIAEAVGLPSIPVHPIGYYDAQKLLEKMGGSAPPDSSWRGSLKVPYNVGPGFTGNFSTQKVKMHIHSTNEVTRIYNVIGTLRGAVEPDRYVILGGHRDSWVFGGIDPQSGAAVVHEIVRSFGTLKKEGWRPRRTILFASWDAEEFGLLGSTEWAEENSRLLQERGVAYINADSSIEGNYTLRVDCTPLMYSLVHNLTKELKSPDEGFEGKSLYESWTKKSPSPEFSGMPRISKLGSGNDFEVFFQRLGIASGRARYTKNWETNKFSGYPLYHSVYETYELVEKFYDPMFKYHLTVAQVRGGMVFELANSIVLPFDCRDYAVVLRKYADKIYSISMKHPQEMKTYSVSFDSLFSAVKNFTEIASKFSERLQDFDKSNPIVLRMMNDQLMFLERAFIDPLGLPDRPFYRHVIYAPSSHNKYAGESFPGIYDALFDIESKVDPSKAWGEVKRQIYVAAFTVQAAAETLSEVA

Ki [1, 4]: 0.018 ± 0.002 nM | Ki [2]: 0.1 ± 0.01 nM
Molecule: O=C(O)CCc1ccc(O)c(CN(CCN(CC(=O)O)Cc2cc(CCC(=O)NCCCCCC(=O)NCCCC[C@H](NC(=O)N[C@@H](CCC(=O)O)C(=O)O)C(=O)O)ccc2O)CC(=O)O)c1 [DKFZ-PSMA-11]

Ki [2]: 5.9 ± 0.9 nM
Molecule: CC(C)C[C@H](NC(=O)N[C@@H](CCC(=O)O)C(=O)O)C(=O)O [ZJ-43, (S)‐2‐(3‐((S)‐1‐carboxy‐3‐methylbutyl)ureido)pentanedioic acid]

Molecule: O=C(O)CCC(CP(=O)(O)O)C(=O)O (centres unmarked) [2-PMPA, 2‐(phosphonomethyl)pentanedioic acid]
Ki [2, 4]: 0.56 ± 0.05 nM

Molecule: N[C@@H](Cn1oc(=O)[nH]c1=O)C(=O)O [Quisqualate]
Ki [1]: 520 ± 80 nM | Ki [2]: 580 ± 60 nM

Molecule: Avi-hGCPII (recombinant extracellular human GCPII) (Homo sapiens)
Km [3]: 0.55 ± 0.06 µM | kcat [3]: 1.45 ± 0.04 s⁻¹ | kcat/Km [3]: 2.65e+06 ± 70000 M⁻¹ s⁻¹

K i (Avi-hGCPII) (nM) [1, 4]: 16 000 ± 5000 nM | K i (Avi-mGCPII) (nM) [2, 4]: 24 000 ± 3000 nM
Molecule: O=C(O)CC[C@H](NC(=O)C(O)(CC(=O)O)CC(=O)O)C(=O)O [β-citryl-L-glutamate]

B1: Avi-mGCPII (recombinant extracellular mouse GCPII) (Mus musculus) (protein)
chain: KPSNEATGNVSHSGMKKEFLHELKAENIKKFLYNFTRTPHLAGTQNNFELAKQIHDQWKEFGLDLVELSHYDVLLSYPNKTHPNYISIINEDGNEIFKTSLSEQPPPGYENISDVVPPYSAFSPQGTPEGDLVYVNYARTEDFFKLEREMKISCSGKIVIARYGKVFRGNMVKNAQLAGAKGMILYSDPADYFVPAVKSYPDGWNLPGGGVQRGNVLNLNGAGDPLTPGYPANEHAYRHELTNAVGLPSIPVHPIGYDDAQKLLEHMGGPAPPDSSWKGGLKVPYNVGPGFAGNFSTQKVKMHIHSYTKVTRIYNVIGTLKGALEPDRYVILGGHRDAWVFGGIDPQSGAAVVHEIVRSFGTLKKKGRRPRRTILFASWDAEEFGLLGSTEWAEEHSRLLQERGVAYINADSSIEGNYTLRVDCTPLMYSLVYNLTKELQSPDEGFEGKSLYDSWKEKSPSPEFIGMPRISKLGSGNDFEVFFQRLGIASGRARYTKNWKTNKVSSYPLYHSVYETYELVVKFYDPTFKYHLTVAQVRGAMVFELANSIVLPFDCQSYAVALKKYADTIYNISMKHPQEMKAYMISFDSLFSAVNNFTDVASKFNQRLQELDKSNPILLRIMNDQLMYLERAFIDPLGLPGRPFYRHIIYAPSSHNKYAGESFPGIYDALFDISSKVNASKAWNEVKRQISIATFTVQAAAETLREVA
notes: extracellular domain (45-752), N-terminal biotinylated Avi-tag with TEV site, secreted from Drosophila S2 cells, streptavidin mutein purification
Km (HPLC assay): 0.29 ± 0.02 µM | kcat (HPLC assay): 3.63 ± 0.09 s⁻¹ | kcat/Km (HPLC assay): 1.26e+07 ± 800000 M⁻¹ s⁻¹ | Km (radioenzymatic assay): 1.9 ± 0.1 µM | kcat (radioenzymatic assay): 1.44 ± 0.02 s⁻¹ | kcat/Km (radioenzymatic assay): 770000 ± 10000 M⁻¹ s⁻¹
